In this assay the target is StBIN2 (Brassinolide insensitive 2 of potato), fused to nLUC (Solanum tuberosum (potato)). Put plainly: split reporter (BiFC, NanoBiT); luciferase complementation in infiltrated tobacco leaves; LUC enzyme activity detected with a dual luciferase reporter assay kit (Vazyme); three biological repeats. For orientation: A reporter such as luciferase makes a cellular process visible.

Bounds are passed on as bounds.

For the substance “StCCJ9 (a homolog of peroxidase AtPER12), fused to cLUC (enzyme)”, the LUC enzyme activity, fold over the negative control was found to be 5 fold. The value for “StSnRK2.2, fused to cLUC (natural protein)” was > 5 fold.

These data come from article PMC10889842.
